Laboratory results taken from article PMC7069074.

Target: T1, ERα (purified) (UniProt P03372)
T1 sequence: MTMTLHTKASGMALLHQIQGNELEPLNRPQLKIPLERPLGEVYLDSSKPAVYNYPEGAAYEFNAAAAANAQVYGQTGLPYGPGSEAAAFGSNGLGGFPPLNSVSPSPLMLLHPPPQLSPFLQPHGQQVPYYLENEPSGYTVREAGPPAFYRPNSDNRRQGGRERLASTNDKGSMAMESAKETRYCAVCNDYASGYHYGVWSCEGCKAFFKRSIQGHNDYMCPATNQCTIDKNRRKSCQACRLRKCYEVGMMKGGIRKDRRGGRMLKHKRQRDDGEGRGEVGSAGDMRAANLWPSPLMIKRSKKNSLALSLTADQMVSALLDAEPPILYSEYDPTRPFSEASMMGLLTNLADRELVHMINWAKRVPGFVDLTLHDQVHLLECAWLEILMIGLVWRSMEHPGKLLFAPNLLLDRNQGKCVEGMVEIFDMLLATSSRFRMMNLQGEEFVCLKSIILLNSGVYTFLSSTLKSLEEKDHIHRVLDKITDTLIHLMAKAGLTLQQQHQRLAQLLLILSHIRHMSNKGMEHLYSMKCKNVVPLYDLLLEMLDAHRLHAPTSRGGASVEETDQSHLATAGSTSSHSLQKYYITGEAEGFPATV
Assay: EMSA (1% agarose, ethidium bromide)
Conditions: EMSA: 0.1 M KCl, 1 mM DTT, 1 mM MgCl2, 10 mM HEPES pH 7.6, 37 °C, 30 min; pull-down: lysate in 5 mM PIPES, 85 mM KCl, 0.5% NP-40, 2 mM PMSF, 4 °C overnight …

In the case of “AACGGAGTGTAGTCGGCTGACCCCTAGCATAGAGCAGTGCTGTTGGCTACTAACCACACCTCTCTACCTCTTTCTTACTCTAATATTACCCACCACAACAGCCAGAAAGTTCTTTTGAGAACATCTATCTGATCATGACACTGTCTTACTTAAAATCTTCCAGTGACTACTATTACCCTTAGGGTAGTCCAGATTCCATAATGTGGTTTACTGGACTCTATGACTTCTAAGAGAAGTCTTAGAGT (double strand) [YB-1 promoter]”, the binding was “binds”.
